In patent US20100086958A1, “NOVEL ENZYME” (priority 2008, published 2010):

Assays:
[1] = Steady state kinetics for NAD^+ (FDH-catalysed formate oxidation); format: biochemical; conditions: cofactor NAD^+, 0.18M formate
Description: BcenFDH1 (Bsp184FDH) and BspFDH2 (Bsp383FDH) catalyzed oxidation of formate to CO2 was monitored by UV/Vis spectrophotometry in a 96-well plate format. A series of eight solutions of formate (0-200 mM) were prepared by successive dilutions of a stock solution of 0.5 M sodium formate in 0.1 M sodium phosphate buffer, pH 7.0. From this series, 170 μL was transferred into wells of the 96-well plate. 10 μL of the FDHs from a stock solution (64.1 μM for BcenFDH1 (Bsp184FDH) and 78.0 μM for BspFDH2 (Bsp383FDH)) were added into each well and equilibrated for 3 min at 30° C. The reaction was initiated by addition of 20 μL of NAD^+ or NADP^+ solution from a freshly prepared stock (10 mM) using an 8-channel pipette. The plate was then immediately placed into the plate reader. The plate was shaken for 5 s to ensure thorough mixing, and then time-based measurements were recorded every 15 s for 10 min. The rate of formate oxidation was calculated using an extinction coefficient of 3.38 mM^−1 (for 200 μL), which was determined using NADH standards. Km and Vmax values were obtained by non-linear regression to the Michaelis-Menten equation (Eq.1 below) using Origin v7 (Microcal Software Inc.).
Similar procedure were used for determination of Michaelis-Menten parameters for NAD^+ and NADP^+. A series of eight solutions of cofactor (0-75 mM) were prepared by successive dilutions of stock solutions. […] of sodium formate solutions (180 mM in well) were transferred into wells of the 96-well plate. 10 μL of the FDHs from a stock solution (64.1 μM for BcenFDH1 (Bsp184FDH) and 78.0 μM for BspFDH2 (Bsp383FDH)) were added into each well and equilibrated for 3 min at 30° C. The reaction was initiated by addition of 20 μL of NAD^+ or NADP^+ solutions using an 8-channel pipette. The plate was then immediately placed into the plate reader. The plate was shaken for 5 s to ensure thorough mixing, and then time-based measurements were recorded every 15 s for 10 min. The rate of formate oxidation was calculated using an extinction coefficient of 3.38 mM^−1 (for 200 μL), which was determined using NADH standards. Km and Vmax values were obtained by non-linear regression to the Michaelis-Menten equation as before.

[2] = Assay of enzyme activity (specific activity, U/mg); format: biochemical; conditions: unit = μmol formate oxidized per min in the presence of co-factor; This work
Description: The reaction was initiated by addition of NAD^+. The total volume of the reaction mixture was 1 mL. Specific activity (U/mg enzyme) was defined as number of μmols of product formed per mg enzyme per minute.

[3] = pH profile determination of FDH-catalysed formate oxidation; format: biochemical; conditions: pHs as low 4 or as high as 10.5
Description: The pH profiles for BcenFDH1 (Bsp184FDH) and BspFDH2 (Bsp383FDH) catalyzed formate oxidation, shown in FIG. 13(a) and (b), were investigated by Uv/Vis spectrophotometry in a 96-well plate format. […] From this series, 170 μL was transferred into wells of the 96-well plate. 10 μL of the FDHs from a stock solution solution (64.1 μM for BcenFDH1 (Bsp184FDH) and 78.0 μM for BspFDH2 (Bsp383FDH)) were added into each well and equilibrated for 3 min at 30° C. The reaction was initiated by addition of 20 μL of NAD^+ solution from a freshly prepared stock (10 mM) using an 8-channel pipette. The plate was then immediately placed into the plate reader. The plate was shaken for 5 s to ensure thorough mixing, and then time-based measurements were recorded every 15 s for 10 min. The rate of formate oxidation was calculated using an extinction coefficient of 3.38 mM^−1 (for 200 μL).

[4] = Thermal stability study (remaining activity after incubation); format: physicochemical
Description: FIGS. 19 and 20—show the effect of temperature on the stability of the Bsp184FDH and Bsp383FDH enzymes. In FIG. […] In FIG. 20 (1) Bsp184FDH (2.1 mg/mL) and (2) Bsp383FDH (1.5 mg/mL) were incubated at 60° C. and 70° C. for 48 hours period in a similar way. Remaining activities were assayed under standard assay conditions and were expressed as the percentage of activities.
Thermal stability for purified wild-type BcenFDH1 (Bsp184FDH) and BspFDH2 (Bsp383FDH) catalyzed formate oxidation were investigated by Uv/V is spectrophotometry in a 96-well plate format. The results are illustrated in FIGS. 19 and 20. […] In addition, time based-thermal stability for purified wild-type BcenFDH1 (Bsp184FDH) and BspFDH2 (Bsp383FDH) catalyzed formate oxidation were also investigated at 60° C. and 70° C. over 48 hours in a similar way. The samples were spun down briefly to remove any precipitations before use. 10 μL of heat-treated BcenFDH1 and BspFDH2 were added into each well and equilibrated for 3 min at 30° C. after adding 170 μL of 200 mM sodium formate (dissolving in 50 mM sodium phosphate buffer, pH 7.0.) The reaction was initiated by addition of 20 μL of NADP^+ solution from a freshly prepared stock of 20 mM using an 8-channel pipette. The plate was then immediately placed into the plate reader. The plate was shaken for 5 seconds to ensure thorough mixing. Time-based measurements were recorded every 10 s for 10 min. The rate of formate oxidation was calculated using the absorption coefficient of 3.38 mM^−1 (for 200 μL).

B1: Bsp383FDH: wild type FDH from Burkholderia sp 383, Seq ID No: 1, C-terminal His-tagged (protein, listed as Burkholderia sp.)
chain: MATVLCVLYPDPVDGYPPRYVRDAIPVITHYADGQTAPTPAGPPGFQPGELVGCVSGALGLRGYMEAHGHTLIVTSDKDSPDSEFERRLPEADVVISQPFWPAYLTAERIARAPKLKLALTAGIGSDHVDLDAAARARITVAEVTGSNSISVAEHVVMTTLALVRNYLPSHAIAQQGGWNIADCVSRSYDVEGMHFGTVGAGRIGLAVLRRLKPFGLQLHYTQRHRLDASIEQELGLTYHADAASLASAVDIVNLQIPLYPSTEHLFDAAMIARMKRGAYLINTARAKLVDRDAVVNALTSGHLAGYGGDVWFPQPAPADHPWRTMPFNGMTPHISGTSLSAQARYAAGTLEILQCWFDGKPIRNEYLIVDGGTLAGTGAQSYRLT
modifications: C-terminal His tag
[1]
  Km: 7.6 ± 2.1 mM
  kcat NAD^+: 0.817 ± 0.13 s⁻¹
[2]
  activity with NADP^+: 8.64 U/mg
  activity with NAD^+: 1.09 U/mg
[3]
  activity at extreme pH: highly active
[4]
  temperature at which the enzymes denature: 80 °C
[4]; 55° C. for 2 hours
  activity lost upon incubation: no activity was lost
[4]; room temperature for weeks
  stability at room temperature: stable
